The sequences below were run on Escherichia coli TOP10 (assay: shrunken log2 fold change of peptide-encoding DNA abundance (4.5 h post-induction vs induction); higher = less antimicrobial activity (less host growth inhibition)). Details: time post-induction: 4.5 h; library: site-saturation at positions 5, 18, 19, 20.
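Further: peptides expressed intracellularly from a pBAD plasmid library in pooled LB shake-flask culture, induced with 0.3% L-arabinose, DNA abundance read by NGS, three biological replicates, DESeq2 with apeglm shrinkage.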

| Sequence | shrunken log2 fold change |
| --- | --- |
| RRIRIRPPRLPRPRPRPGNQPRP | -0.839 |
| RRIRIRPPRLPRPRPRPGPSPRP | 0.108 |
| RRIRIRPPRLPRPRPRPGQFPRP | -0.0255 |
| RRIRIRPPRLPRPRPRPGQQPRP | 0.0905 |
| RRIRIRPPRLPRPRPRPGQYPRP | -0.221 |
| RRIRIRPPRLPRPRPRPGRCPRP | -0.0543 |
| RRIRIRPPRLPRPRPRPGSAPRP | 0.267 |
| RRIRIRPPRLPRPRPRPGTDPRP | -0.114 |
| RRIRIRPPRLPRPRPRPGWEPRP | 0.0557 |
| RRIRIRPPRLPRPRPRPHAFPRP | -0.0152 |
| RRIRIRPPRLPRPRPRPHDSPRP | -0.398 |
| RRIRIRPPRLPRPRPRPHFGPRP | -0.00693 |
| RRIRIRPPRLPRPRPRPHHQPRP | -0.41 |
| RRIRIRPPRLPRPRPRPHKFPRP | -0.291 |
| RRIRIRPPRLPRPRPRPHNEPRP | -1.35 |
| RRIRIRPPRLPRPRPRPHNPPRP | -1.23 |
| RRIRIRPPRLPRPRPRPHNYPRP | -0.376 |
| RRIRIRPPRLPRPRPRPHPQPRP | -0.0725 |
| RRIRIRPPRLPRPRPRPHQEPRP | -0.01 |
| RRIRIRPPRLPRPRPRPHQRPRP | -0.137 |
| RRIRIRPPRLPRPRPRPHRDPRP | -0.236 |
| RRIRIRPPRLPRPRPRPHSEPRP | -0.13 |
| RRIRIRPPRLPRPRPRPHSHPRP | -0.912 |
| RRIRIRPPRLPRPRPRPHSTPRP | -0.428 |
| RRIRIRPPRLPRPRPRPHVFPRP | 0.064 |

| Sequence | shrunken log2 fold change |
| --- | --- |
| RRIRIRPPRLPRPRPRPHWLPRP | -0.49 |
| RRIRIRPPRLPRPRPRPHYRPRP | -0.204 |
| RRIRIRPPRLPRPRPRPHYWPRP | -0.85 |
| RRIRIRPPRLPRPRPRPIAFPRP | -0.0789 |
| RRIRIRPPRLPRPRPRPIDMPRP | -0.0681 |
| RRIRIRPPRLPRPRPRPIDWPRP | -0.0878 |
| RRIRIRPPRLPRPRPRPIEAPRP | -0.01 |
| RRIRIRPPRLPRPRPRPIFAPRP | -0.0891 |
| RRIRIRPPRLPRPRPRPIGMPRP | -0.187 |
| RRIRIRPPRLPRPRPRPIHEPRP | -0.316 |
| RRIRIRPPRLPRPRPRPILMPRP | -0.23 |
| RRIRIRPPRLPRPRPRPIMRPRP | 0.139 |
| RRIRIRPPRLPRPRPRPIMWPRP | -0.0162 |
| RRIRIRPPRLPRPRPRPIMYPRP | -0.0494 |
| RRIRIRPPRLPRPRPRPIPNPRP | -0.0731 |
| RRIRIRPPRLPRPRPRPIQYPRP | -0.251 |
| RRIRIRPPRLPRPRPRPIREPRP | -0.0273 |
| RRIRIRPPRLPRPRPRPISIPRP | 0.0772 |
| RRIRIRPPRLPRPRPRPISMPRP | 0.0215 |
| RRIRIRPPRLPRPRPRPIVMPRP | -0.0726 |
| RRIRIRPPRLPRPRPRPIWAPRP | -0.234 |
| RRIRIRPPRLPRPRPRPIWEPRP | -0.0114 |
| RRIRIRPPRLPRPRPRPIWFPRP | -0.164 |
| RRIRIRPPRLPRPRPRPIWMPRP | -0.176 |
| RRIRIRPPRLPRPRPRPIYDPRP | -0.471 |

| Sequence | shrunken log2 fold change |
| --- | --- |
| RRIRIRPPRLPRPRPRPIYFPRP | -0.233 |
| RRIRIRPPRLPRPRPRPKAKPRP | 0.329 |
| RRIRIRPPRLPRPRPRPKCVPRP | -0.328 |
| RRIRIRPPRLPRPRPRPKEHPRP | -0.15 |
| RRIRIRPPRLPRPRPRPKFAPRP | -0.0494 |
| RRIRIRPPRLPRPRPRPKFCPRP | -0.639 |
| RRIRIRPPRLPRPRPRPKFNPRP | -1.09 |
| RRIRIRPPRLPRPRPRPKFVPRP | -0.0693 |
| RRIRIRPPRLPRPRPRPKKNPRP | -0.249 |
| RRIRIRPPRLPRPRPRPKKWPRP | -0.00764 |
| RRIRIRPPRLPRPRPRPKQKPRP | -0.12 |
| RRIRIRPPRLPRPRPRPKRAPRP | 0.283 |
| RRIRIRPPRLPRPRPRPKRSPRP | -0.335 |
| RRIRIRPPRLPRPRPRPKVWPRP | -0.0123 |
| RRIRIRPPRLPRPRPRPKWIPRP | -0.77 |
| RRIRIRPPRLPRPRPRPKYQPRP | -0.615 |
| RRIRIRPPRLPRPRPRPLASPRP | 0.0396 |
| RRIRIRPPRLPRPRPRPLDDPRP | 0.0241 |
| RRIRIRPPRLPRPRPRPLDSPRP | -0.0212 |
| RRIRIRPPRLPRPRPRPLECPRP | 0.0303 |
| RRIRIRPPRLPRPRPRPLEDPRP | -0.0413 |
| RRIRIRPPRLPRPRPRPLEGPRP | -0.0524 |
| RRIRIRPPRLPRPRPRPLEIPRP | -0.0939 |
| RRIRIRPPRLPRPRPRPLFIPRP | -0.525 |
| RRIRIRPPRLPRPRPRPLGCPRP | -0.0574 |

| Sequence | shrunken log2 fold change |
| --- | --- |
| RRIRIRPPRLPRPRPRPLHVPRP | -0.135 |
| RRIRIRPPRLPRPRPRPLISPRP | -0.127 |
| RRIRIRPPRLPRPRPRPLKEPRP | -0.568 |
| RRIRIRPPRLPRPRPRPLKFPRP | -0.373 |
| RRIRIRPPRLPRPRPRPLLIPRP | -0.485 |
| RRIRIRPPRLPRPRPRPLLYPRP | 0.47 |
| RRIRIRPPRLPRPRPRPLMEPRP | -0.278 |
| RRIRIRPPRLPRPRPRPLNFPRP | -0.434 |
| RRIRIRPPRLPRPRPRPLPCPRP | -0.661 |
| RRIRIRPPRLPRPRPRPLQEPRP | -0.0919 |
| RRIRIRPPRLPRPRPRPLQSPRP | -0.0353 |
| RRIRIRPPRLPRPRPRPLRGPRP | 0.694 |
| RRIRIRPPRLPRPRPRPLRHPRP | -0.172 |
| RRIRIRPPRLPRPRPRPLTFPRP | -0.173 |
| RRIRIRPPRLPRPRPRPLTGPRP | -0.0674 |
| RRIRIRPPRLPRPRPRPLVMPRP | -1.56 |
| RRIRIRPPRLPRPRPRPLVVPRP | -0.25 |
| RRIRIRPPRLPRPRPRPLWFPRP | -0.257 |
| RRIRIRPPRLPRPRPRPLYYPRP | -0.856 |
| RRIRIRPPRLPRPRPRPMAGPRP | 0.022 |
| RRIRIRPPRLPRPRPRPMCEPRP | -0.00819 |
| RRIRIRPPRLPRPRPRPMCFPRP | -0.343 |
| RRIRIRPPRLPRPRPRPMCLPRP | -0.425 |
| RRIRIRPPRLPRPRPRPMCQPRP | 0.0317 |
| RRIRIRPPRLPRPRPRPMDPPRP | -0.347 |

| Sequence | shrunken log2 fold change |
| --- | --- |
| RRIRIRPPRLPRPRPRPMFAPRP | -0.00719 |
| RRIRIRPPRLPRPRPRPMGFPRP | 0.0523 |
| RRIRIRPPRLPRPRPRPMHIPRP | -0.417 |
| RRIRIRPPRLPRPRPRPMHRPRP | -0.262 |
| RRIRIRPPRLPRPRPRPMHSPRP | -0.0586 |
| RRIRIRPPRLPRPRPRPMIDPRP | -1.15 |
| RRIRIRPPRLPRPRPRPMLLPRP | 0.0902 |
| RRIRIRPPRLPRPRPRPMLTPRP | -0.00363 |
| RRIRIRPPRLPRPRPRPMMNPRP | -0.442 |
| RRIRIRPPRLPRPRPRPMNHPRP | -0.348 |
| RRIRIRPPRLPRPRPRPMNSPRP | -0.191 |
| RRIRIRPPRLPRPRPRPMPHPRP | -0.0728 |
| RRIRIRPPRLPRPRPRPMPRPRP | 0.0826 |
| RRIRIRPPRLPRPRPRPMQFPRP | -0.343 |
| RRIRIRPPRLPRPRPRPMQQPRP | 0.0184 |
| RRIRIRPPRLPRPRPRPMQYPRP | -0.016 |
| RRIRIRPPRLPRPRPRPMRMPRP | 0.0697 |
| RRIRIRPPRLPRPRPRPMSEPRP | -0.00782 |
| RRIRIRPPRLPRPRPRPMSHPRP | -0.0862 |
| RRIRIRPPRLPRPRPRPMSWPRP | -0.402 |
| RRIRIRPPRLPRPRPRPMTAPRP | -0.2 |
| RRIRIRPPRLPRPRPRPMTPPRP | 0.0425 |
| RRIRIRPPRLPRPRPRPMTQPRP | 0.0472 |
| RRIRIRPPRLPRPRPRPMVAPRP | -0.14 |
| RRIRIRPPRLPRPRPRPMVGPRP | 0.105 |

| Sequence | shrunken log2 fold change |
| --- | --- |
| RRIRIRPPRLPRPRPRPMVTPRP | -0.018 |
| RRIRIRPPRLPRPRPRPMWAPRP | -0.0316 |
| RRIRIRPPRLPRPRPRPMWLPRP | -0.233 |
| RRIRIRPPRLPRPRPRPMYHPRP | -0.839 |
| RRIRIRPPRLPRPRPRPMYRPRP | -0.0946 |
| RRIRIRPPRLPRPRPRPMYYPRP | -0.32 |
| RRIRIRPPRLPRPRPRPNCEPRP | -0.525 |
| RRIRIRPPRLPRPRPRPNCQPRP | -0.367 |
| RRIRIRPPRLPRPRPRPNDKPRP | -0.647 |
| RRIRIRPPRLPRPRPRPNDNPRP | -0.912 |
| RRIRIRPPRLPRPRPRPNDWPRP | 0.0555 |
| RRIRIRPPRLPRPRPRPNEKPRP | -0.0849 |
| RRIRIRPPRLPRPRPRPNELPRP | -0.056 |
| RRIRIRPPRLPRPRPRPNEVPRP | -0.346 |
| RRIRIRPPRLPRPRPRPNFFPRP | 0.00639 |
| RRIRIRPPRLPRPRPRPNGLPRP | 0.0383 |
| RRIRIRPPRLPRPRPRPNICPRP | -0.147 |
| RRIRIRPPRLPRPRPRPNIEPRP | -0.0607 |
| RRIRIRPPRLPRPRPRPNIIPRP | -0.719 |
| RRIRIRPPRLPRPRPRPNKCPRP | -0.438 |
| RRIRIRPPRLPRPRPRPNKPPRP | -0.119 |
| RRIRIRPPRLPRPRPRPNKYPRP | -0.932 |
| RRIRIRPPRLPRPRPRPNMIPRP | -0.225 |
| RRIRIRPPRLPRPRPRPNPKPRP | 0.0309 |
| RRIRIRPPRLPRPRPRPNQNPRP | -0.391 |

— the supplement of paper PMC9112550, “Optimization of the antimicrobial peptide Bac7 by deep mutational scanning” (BMC Biology, 2022)
